Patent publication US20150351390A1, “COMPOSITIONS AND METHODS FOR AUXIN-ANALOG CONJUGATION” (PIONEER HI-BRED INTERNATIONAL, INC., priority 2012, published 2015)

B1: AtGH3-6: GH3 protein, accession Q9LSQ4 (protein, listed as Arabidopsis thaliana)
chain: MPEAPKIAALEVSDESLAEKNKNKLQFIEDVTTNADDVQRRVLEEILSRNADVEYLKRHGLEGRTDRETFKHIMPVVTYEDIQPEINRIANGDKSQVLCSNPISEFLTSSGTSGGERKLMPTIEEELDRRSLLYSLLMPVMDQFVPGLDKGKGMYFLFIKSESKTPGGLPARPVLTSYYKSSHFKNRPYDPYTNYTSPNQTILCSDSYQSMYSQMLCGLCQHKEVLRVGAVFASGFIRAIKFLEKHWPELARDIRTGTLSSEITDSSVREAVGEILKPDPKLADFVESECRKTSWQGIITRLWPNTKYVDVIVTGTMSQYIPTLDYYSNGLPLVCTMYASSECYFGVNLRPLCKPSEVSYTLIPNMAYFEFLPVHRNSGVTSSISLPKALTEKEQQELVDLVDVKLGQEYELVVTTYAGLYRYRVGDVLSVAGFKNNAPQFSFICRKNVVLSIDSDKTDEVELQNAVKNAVTHLVPFDASLSEYTSYADTSSIPGHYVLFWELCLNGNTPIPPSVFEDCCLTIEESLNSVYRQGRVSDKSIGPLEIKMVESGTFDKLMDYAISLGASINQYKTPRCVKFAPIIELLNSRVVDSYFSPKCPKWSPGHKQWGSN
B2: AtGH3-1: GH3 protein, accession O82333 (protein, listed as Arabidopsis thaliana)
chain: MAVDSNLSSPLGPPACEKDAKALRFIEEMTRNADTVQENLLAEILARNADTEYLRRFNLCGATDRDTFKTKIPVITYEDLQPEIQRIADGDRSPILSAHPISEFLTSSGTSAGERKLMPTIKEELDRRQLLYSLLMPVMNLYVPGLDKGKGMYFLFVKSETKTPGGLPARPVLTSYYKSEHFRSRPYDPYNVYTSPNEAILCPDSFQSMYTQMLCGLLDRLSVLRVGAVFASGLLRAIRFLQLHWSRFAHDIELGCLDSEITDPSIRQCMSGILKPDPVLAEFIRRECKSDNWEKIITRIWPNTKYLDVIVTGAMAQYIPTLEYYSGGLPMACTMYASSECYFGLNLNPMSKPSEVSYTIMPNMAYFEFIPLGGTKAVELVDVNIGKEYELVVTTYAGLCRYRVGDILRVTGFHNSAPQFHFVRRKNVLLSIDSDKTDESELQKAVENASSILHEECGSRVAEYTSYADTSTIPGHYVLYWELLVRDGARQPSHETLTRCCLGMEESLNSVYRQSRVADNSVGPLEIRVVRNGTFEELMDYAISRGASINQYKVPRCVNFTPIVELLDSRVVSAHFSPSLPHWTPERRRR
B3: AtGH3-4: GH3 protein, accession Q9LQ68 (protein, listed as Arabidopsis thaliana)
chain: MAVDSLLQSGMASPTTSETEVKALKFIEEITRNPDSVQEKVLGEILSRNSNTEYLKRFDLNGAVDRKSFKSKVPVVIYEDLKTDIQRISNGDRSPILSSHPITEFLTSSGTSAGERKLMPTIEEDINRRQLLGNLLMPVMNLYVPGLDKGKGLYFLFVKSESTTSGGLPARPALTSYYKSDYFRTSDSDSVYTSPKEAILCCDSSQSMYTQMLCGLLMRHEVNRLGAVFPSGLLRAISFLQNNWKELSQDISTGTLSSKIFDHAIKTRMSNILNKPDQELAEFLIGVCSQENWEGIITKIWPNTKYLDVIVTGAMAEYIPMLEYYSGGLPMASMIYASSESYFGINLNPMCKPSEVSYTIFPNMAYFEFLPHNHDGDGGVEATSLVELADVEVGKEYELVITTYAGLYRYRVGDILRVTGFHNSAPQFKFIRRENVLLSIESDKTDEADLQKAVENASRLLAEQGTRVIEYTSYADTKTIPGHYVIYWELLSRDQSNALPSDEVMAKCCLEMEESLNAVYRQSRVSDKSIGPLEIRVVQNGTFEELMDFSISRGSSINQYKVPRCVSLTPIMKLLDSRVVSAHFSPSLPHWSPERRH
B4: AIGH3-2: GH3 protein, accession XP_002868993 (protein, listed as Arabidopsis lyrata)
chain: MAVDSPLQSRMVSPTTSEKDVKALKFIEEMTRNPDSVQEKVLGEILSRNSNTEYLKRFDINGAIDRNTFKNKVPVVTYEDLKPEIQRISNGDRSPILSSHPITEFLTSSGTSAGERKLMPTIEEDLDRRQLLYSLLMPVMNLYVPGLDKGKGLYFLFVKSESKTSGGLPARPVLTSYYKSDHFRRRPYDPYNVYTSPNEAILCSDSSQSMYAQMLCGLLMRHEVLRLGAVFASGLLRAISFLQNNWKELARDISTGTLSSRIFDPTIKNRMSKILIKPDQELAEFLIGVCSQENWEGIITKIWPNTKYLDVIVTGAMAQYIPTLEYYSGGLPMACTMYASSESYFGINLKPMCKPSEVSYTIMPNMAYFEFLPHNHDGDGATEASLDETSLVELADVEVGKEYELVITTYAGLYRYRVGDILRVTGFHNSAPQFKFIRRKNVLLSIESDKTDEAELQKAVENASRLFAEQGTRVIEYTSYAETKTIPGHYVIYWELLGRDQSNALPSEEVMAKCCLEMEESLNSVYRQSRVADKSIGPLEIRLVQNGTFEELMDYAISRGASINQYKVPRCVSFTPIMELLDSRVVSAHFSPSLPHWSPERRR
B5: AtGH3-2: GH3 protein, accession AEE86787 (protein, listed as Arabidopsis thaliana)
chain: MAVDSPLQSRMVSATTSEKDVKALKFIEEMTRNPDSVQEKVLGEILTRNSNTEYLKRFDLDGVVDRKTFKSKVPVVTYEDLKPEIQRISNGDCSPILSSHPITEFLTSSGTSAGERKLMPTIEEDLDRRQLLYSLLMPVMNLYVPGLDKGKGLYFLFVKSESKTSGGLPARPVLTSYYKSDHFKRRPYDPYNVYTSPNEAILCSDSSQSMYAQMLCGLLMRHEVLRLGAVFASGLLRAISFLQNNWKELARDISTGTLSSRIFDPAIKNRMSKILTKPDQELAEFLVGVCSQENWEGIITKIWPNTKYLDVIVTGAMAQYIPTLEYYSGGLPMACTMYASSESYFGINLKPMCKPSEVSYTIMPNMAYFEFLPHNHDGDGAAEASLDETSLVELANVEVGKEYELVITTYAGLYRYRVGDILRVTGFHNSAPQFKFIRRKNVLLSVESDKTDEAELQKAVENASRLFAEQGTRVIEYTSYAETKTIPGHYVIYWELLGRDQSNALMSEEVMAKCCLEMEESLNSVYRQSRVADKSIGPLEIRVVRNGTFEELMDYAISRGASINQYKVPRCVSFTPIMELLDSRVVSAHFSPSLPHWSPERRR
B6: AtGH3-5: GH3 protein, accession O81829 (protein, listed as Arabidopsis thaliana)
chain: MPEAPKKESLEVFDLTLDQKNKQKLQLIEELTSNADQVQRQVLEEILTRNADVEYLRRHDLNGRTDRETFKNIMPVITYEDIEPEINRIANGDKSPILSSKPISEFLTSSGTSGGERKLMPTIEEELDRRSLLYSLLMPVMSQFVPGLENGKGMYFLFIKSESKTPGGLPARPVLTSYYKSSHFKERPYDPYTNYTSPNETILCSDSYQSMYSQMLCGLCQHQEVLRVGAVFASGFIRAIKFLEKHWIELVRDIRTGTLSSLITDPSVREAVAKILKPSPKLADFVEFECKKSSWQGIITRLWPNTKYVDVIVTGTMSQYIPTLDYYSNGLPLVCTMYASSECYFGVNLRPLCKPSEVSYTLIPSMAYFEFLPVHRNNGVTNSINLPKALTEKEQQELVDLVDVKLGQEYELVVTTYAGLCRYRVGDLLRVTGFKNKAPQFSFICRKNVVLSIDSDKTDEVELQNAVKNAVTHLVPFDASLSEYTSYADTSSIPGHYVLFWELCLDGNTPIPPSVFEDCCLAVEESFNTVYRQGRVSDKSIGPLEIKIVEPGTFDKLMDYAISLGASINQYKTPRCVKFAPIIELLNSRVVDSYFSPKCPKWVPGHKQWGSN
B7: PtGH3-7: GH3 protein, accession EEE84166 (protein, listed as Populus trichocarpa)
chain: MLPVFDPNDNEAGLKLLEDLTNNACQIQQQVLEEILATNLHTEYLKSFLNGDSGKENFKNKVPIVNYEDIKPCIERIANGEPSSIISTQPITELLTSSGTSGGQPKIMPSTAEELERKTFFYNLLVPVMNKYVDGLDQGKAMYLLFIKPEISTPSGLMARPVLTSYYKSNNFRNRAFNRYNVYTSPDETILCSDSKQSMYCQLLCGLVQRDEVLRVGAIFASAFLRAIKFLEEYLKELCSNIRTGSVSDWITDPNCRNAVLSILSKPNSELADLIEDECSGKSWEGIIKKLWPRTKYIEVIVTGSMAQYIPTLEFYSGGLPLVSTMYGSSECYLGINFKPLSNPYDVSYTLLPNMAYFEFLPVDNNHKEVVPDVQCNGVSVTDRNGKEKVEAVDLVDVKLGHYYELIVTTFTGLYRYRVGDILMVTGFYNNAPQFRFVHRRNVVLSIDTDKTNEEDLLKAVTQAKVLLEPLGFLLTEYTSFADTASIPGHYVLFWELKMRGTNDLPELDPVIMEQCCSIVEESLDSVYRRCRKKDKSIGPLEVRVVTHGTFDALMDFCVSQGSSVNQYKTPRCIKSEEALKILDSRVVGRFSSNKTPFWEPFRIET

Experiment: LC-MS assay of GH3 conjugation of 2,4-D with Asp or Glu
Type: biochemical
Settings: conjugation of 2,4-D with Asp by recombinant GH3 protein; 2,4-D-Asp product by LC-MS; 5 mM 2,4-D substrate
Summary of the method: (§1)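 Amino acid conjugates of IAA, 2,4-D or dicamba measured by LC-MS against conjugate standards, with kinetic parameters fitted to Michaelis-Menten initial velocities. Reactions: 5 mM each of auxin, ATP and Asp or Glu with 44 to 164 μg/mL purified His-tagged GH3 (E. coli-expressed), pH 8.0 Tris, 5 mM MgCl2, 1 mM DTT, 30 °C for 3 h.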

| Molecule | kcat (hrs−1) 2,4-D-Asp |
| --- | --- |
| B1 | 2.136 h⁻¹ |
| B2 | 1.188 h⁻¹ |
| B3 | 2.032 h⁻¹ |
| B4 | 1.903 h⁻¹ |
| B5 | 1.200 h⁻¹ |
| B6 | 2.309 h⁻¹ |
| B7 | 0.547 h⁻¹ |

Same assay, conditions: conjugation of 2,4-D with Glu by recombinant GH3 protein; 2,4-D-Glu product by LC-MS; 5 mM 2,4-D substrate

| Molecule | kcat (hrs−1) 2,4-D-Glu |
| --- | --- |
| B1 | 0.598 h⁻¹ |
| B2 | 0.136 h⁻¹ |
| B3 | 0.594 h⁻¹ |
| B4 | 0.309 h⁻¹ |
| B5 | 0.131 h⁻¹ |
| B6 | 0.795 h⁻¹ |
| B7 | 3.487 h⁻¹ |

Experiment: LC-MS assay of GH3 conjugation of IAA with Asp or Glu
Type: biochemical
Settings: conjugation of IAA with Asp by recombinant GH3 protein; IAA-Asp product by LC-MS
Summary of the method: as §1

| Molecule | kcat (hrs−1) IAA-Asp |
| --- | --- |
| B1 | 447.107 h⁻¹ |
| B2 | 437.707 h⁻¹ |
| B3 | 414.602 h⁻¹ |
| B4 | 583.500 h⁻¹ |
| B5 | 511.761 h⁻¹ |
| B6 | 578.727 h⁻¹ |
| B7 | 38.668 h⁻¹ |

Same assay, conditions: conjugation of IAA with Glu by recombinant GH3 protein; IAA-Glu product by LC-MS

| Molecule | kcat (hrs−1) IAA-Glu |
| --- | --- |
| B1 | 14.154 h⁻¹ |
| B2 | 19.230 h⁻¹ |
| B3 | 37.932 h⁻¹ |
| B4 | 13.953 h⁻¹ |
| B5 | 30.640 h⁻¹ |
| B6 | 68.086 h⁻¹ |
| B7 | 450.548 h⁻¹ |
